In the DeepSol protein solubility set:

test: soluble on expression in E. coli; label from the status in PepcDB or PDB records

Row | Sequence | soluble on expression in E. coli
1 | MSLIKGKELLGRPVVAVSNGAQVDNVHDVVFDHQGNRVLALLVEEGGWLRAAKAVPFGRVQSIGEKAVMIATPEDVVNTGRDPVLKEALAGKTNLIGMTLLTTDGQTLGKITDVYFDERSGQVEGYEASGGLFADMTNGRTFIPAPQSIQIGKDSAIVPAGVAAAMREQAPGGIRGAFHTAGKSLGGAVQGAADSVRGAYEDTSRSVRENYEQVSANVAEAAREGQQQARAAASDLRSRVQGGAEDLREASAERQKDFVVGKVAGQDVRTDNGVLIVAKGTTIDEGQARFAEQNGALPALLAAAAGGSVREGVRDLLADPSSDAGDVVGRRVQEDVRSSVGSLIAVQGQIVTPEVAERARELGLEERLVAATQAPGLQTPPVPDRAELREQASDLRDNLADGLSNVSQNVSQGANELLGRAKSWLGERREDLEDSLDRQEQEAYQARIRDALGRPVTRAVLTRTDRVILQPGELVTHAALDEARAAGVLGLLLDSVDGGEGHHHHHH | soluble
2 | MILKRAYDVTPQKISTDKVRGVRKRVLIGLKDAPNFVMRLFTVEPGGLIDRHSHPWEHEIFVLKGKLTVLKEQGEETVEEGFYIFVEPNEIHGFRNDTDSEVEFLCLIPKEGGE | not soluble
3 | GSHMKVDITIKIQRDGQEIEIDIRVSTGKELERALQELEKALARAGARNVQITISAENDEQAKELLELIARLLQKLGYKDINVRVNGTEVKIEVRV | soluble
4 | MAHHHHHHMEGEEVPLVQPFRQHREQCRVKLQEIGPRMTLQLSKVENGFAGGEVIYHRTEKKTLREVQVNASKVRARKTEKAKRRALQDENVQRKRQKREDKLERKHQRREAAAEAQQANPFEVAHGDGDGDGYAAGDEE | not soluble
5 | MEDHKPRPCQPRPWLKEQKCPTGFWCHEGQSEHSFYCCPSSRKFANRCHLPPAVGYGKQRMRRFYFDWKTDACHELQYSGIGGNENIFMDYEQCERVCRGAGEPPILLPSNMKVLPKETTKDFKKMEKPEMEKKMVYPKEVAAPVSLQPPSLRTTKPADVHESFYTVSPQTSSVPHPTTLSTTHSKQKPTTTEAEIPEVFDPNPCSLSPDKGFPGSVTVNMWYYDPTSTTCSPFMYLGKGGNSNRFETSEECLETCGIGKPTRKSCELPPAIGNGPFNIPRYYFDRVTKKCERFFYSGRDGNDNRFYKKNKCERLCLRKKPKKKENIYEFTTTPSTPSVIYESTPLRIIQNLVPNYVTPTPTQSRITVEPWIERFTEKSSIYEYSTTPHPTLIYEPHGETLPTLNPPTTTTPSIVDHVFSSLMNTQQQKLVEFVHVPTDQKTTGETPRKFSSHETIPFGQVEQQPIPMNPFGSAKPTVNKFGMKVEPYQTTDYMLPPGYPSSSIYLPQPAYPEVKPNSSVILSSTQSQNNTSPQTIPASASVTNSATSTVVDTSSQFQIPYVSSPASATSNIFVGPIPPPSNSGSSSQAPDSSQSATNSSNSGSGESKIPNVGPIAPPSQLSQVGVFVTGSTSTSPVVSINFIKTENSVQQPTHYIVPSQSSPPPDPYVISNPIPTLSPTAGTPSFNIYPYPSLPPPTTTISPLPTLLPPNISYVTSPPDNNDSPCSRSIYGDATIMCENRQEICPMGTFCQIGQGQSICCPIMDEPPCEQAIEEGVGNVLLRRWYFDPATRLCQPFYYKGFKGNQNNFQSFDSCSRACGATNVCSGGSPQMSVHTHLLSCNFESDCPYSHDCIQSTPHNLCCPKTSHLVPESIPAPPFEPVQMPIPAPPAQVSQPQEQSSNMVIDFVPATHASNNLCGQPIDVGFGVLSEHRWAYSAGQCTSFLYSGHGGNMNNFLTRNDCMKTCQSPMPPPSSQCSQPAASGQGDQYLSRYFFSPEYRQCLHFIYSGEGGNQNNFDSLTDCLETCVANGIKFSSLANSPMSAVPPPPPTLMPSPPVTSSPFTFVPRNMCPQGDPLITVDGTPIQCDPSKAAKCPGDHVCTPRGNEAYCCPSPMNFCLQSRPPISVCSGPDFEPVREIRFTYDPLADRCVRFSFQNCRGAAFSPTGSLNNFVSNSQCNRLCCNQGYNLVYKRRLLMAMNDDPIVEDD | not soluble
6 | MPELPEVETSRRGIEPHLVGATILHAVVRNGRLRWPVSEEIYRLSDQPVLSVQRRAKYLLLELPEGWIIIHLGMSGSLRILPEELPPEKHDHVDLVMSNGKVLRYTDPRRFGAWLWTKELEGHNVLTHLGPEPLSDDFNGEYLHQKCAKKKTAIKPWLMDNKLVVGVGNIYASESLFAAGIHPDRLASSLSLAECELLARVIKAVLLRSIEQGGTTLKDFLQSDGKPGYFAQELQVYGRKGEPCRVCGTPIVATKHAQRATFYCRQCQK | not soluble
7 | MGSDKIHHHHHHMIWKLSERKDWNSLEQQFGWVRDMNQVPQHTVHHAEGSVAVHTRMVLEALLRQPAYPMLPEQEREILWAAALLHDVEKRSTSVDEGNGQVTSKNHAKRGETTVRTLLYRDIPAPFNIREHIASLVRHHGLPIWLMEREDPLKRACEASLRLDTSLLKQLTVADICGRISTDKEVLLEATEFFEMFCREQQCWGKAREFANGTARFHYFHTPRSYIDYVPHDDFKCGVTLLVGLPGMGKDYYIESRCADMPVVSLDAIRRKHKFSPTDKAANGWVAQTAKEQARIYLRKGQDFIWNATNVSRQRRTQLIDLFITYGARVKIVYIEKPYSVWRRQNSTREYEVPETVLDKMLGRLEVPQLTEAHEVVYVVEE | not soluble
8 | LFAAIVDNLSDGIYVLQDDRVVYLNERFAQLFGHGDAGSLLMRELDDILPHGEGKEIVGRIHAELLAGEPSSVAWGQPFAHMDGTPVWLEMEARRIRLNGRPAILGVCHDRT | not soluble
9 | MADKHLIREKVLRNLNTIDKVEHRERSIKLAEKLFLLPEWNQAKVIGITLARHPEIETETIILQAKKEGKTVLIPKTFYPSRKMEFKKMDSSHPLTKTKFGILEPHELAETVDKDAIDLLIVPGVVFNKAHFRIGFGGGFYDRFLADFKGETVSLCLYEQQIEFTPESHDKPVSILIEG | soluble
10 | MSLRPRMIDWLQARNIGVAVSQSYLAPVVDRAARQEQYRRMVQRSEPLISAYMGVRLPQPIDRIYVFDRAEWIEANLAAFQSLFAPLEELYDEVSARQGMVGILIGQLNSQLIGMQVGALIGFLARRVLGQYDLGLLSPDPDLRGALYFVEPNIARICAQLGLNGDDFRMWIALHETTHVFEFEAFPWVRAYFQDLLRQFIGRVNDQAAMLSVGIVRLIERLLQGQPIDHHWIELMLTPEQREIFTRMQALMSVVEGYSNHIMNAIGAQLLPSYPSIEARVRQRQLRRPLIEEAFNRITGMDLKLAQYQQGEAFINAVVAACGADFANRIWERPENLPTMDEIRAPHRWIARMSGEGHHHHHH | soluble
11 | MSLTNDYRFEFRPYQRRFLRSLTTNHGKWDIREGIILRLTDETLRVGWGEIAPISWFGSETLEQVLDFCRQLPGEITDETIFSIPDELPACQFGFESAWEWGSWKWGNEFFSMPNAQCPMPNAQSFSALLPFGEAALNQWETLWQKGYRTFKWKIGVDAIADELKIFESLTRILPASTKLRLDANGGLSYEEANLWLRTCDNLKANAELPLEIEFIEQPLPVEQFQQMLELSTSYETAIALDESVATLKQLAACHQQGWREIFVIKPGIVGSPSRLRKFCHQHQIDTVFSSVLETAIGRLAALQIAAELSRNNRAIGFGIDHFFEQEETWFQTLWNDLEGHHHHHH | soluble
12 | MGSDKIHHHHHHMMAFITVKPEIKNNLANVAKELKIDEELLKSANRSAQKHQLYCPGYVIEEHSGKELQTIQDIKRFLQPRQLKLSDSWIEQEKIYDDSAVEKEIKKIIDVFPFVSCREIGRSVLGRPIWELKAGGEHAVKKVHMNASFHANEWITTSVLLKWFKEYCMSLCCNSPFFGFSPIKLFNSTSLSLVPLVNPDGVDLVLNGSEVMGARRDELERLNEHRPNFNEWKANINGVDLNKQFPSLWEIEKYRKPTAPSYRDFPGISPLTEPESIAMYRLITENPPDRLLALHTQGEEIYWGYKGLEPEESAAVIKEFEELSGNIYKGVRDIDSYAGFRDWFIHHYFKEGYTVELGKGQNPLPFQQFSHIYNATSGILWRALFFHE | not soluble
13 | GPGSMPSKEASSRNLPISGRDTNGKTYRSTDEMWKAELTGDLYDPEKGWYGKALEYWRTVPATVSGVLGGMDHVHDVDIEGSRNFIASLPGHGTSRALDCGAGIGRITKNLLTKLYATTDLLEPVKHMLEEAKRELAGMPVGKFILASMETATLPPNTYDLIVIQWTAIYLTDADFVKFFKHCQQALTPNGYIFFKENCSTGDRFLVDKEDSSLTRSDIHYKRLFNESGVRVVKEAFQEEWPTDLFPLKMYALK | soluble
14 | MGAGPSDHRAITLEGTTVMVPVYNSTAQQSPYQLTTTADGGVALHHQGELTTTLETPPEPHFYNLQTAESIPYKAIALLHGKDVLATTLQQTCIRFRDRSESCQFCAIEQSLTSGQTIVRKTPEQVAEVVAAAVRLDGVRQLVMTTGTPNSRDRGARLMAETAAAVKAVVDIPIQAQCEPPDDPVWFSRMKAAGVNSLGMHLEVVEPEVRRRILPGKSELTLEHYYRAFEQAVAVFGRGEVSTYLLAGLGDSADSLIDCSRRLIAIGVYPFIVPFVPIAGTPLERHPAPTTAFMLQIYEAVGALLHDSDLRSAAMSAGLEHHHHHH | not soluble
15 | MGSDKIHHHHHHMKKKNTTPTPHDATFRQFLTQPDIARDFMELHLPAELRAICDLSTLKLESGSFVEDDLRQYFSDVLYSLKTTAGDGYIHVLVEHQSTPDKHMAFRLIRYAVAAMQRHLEAGHKKLPLVIPVLFYTGKRSPYPYSTRWLDEFDDTALADKLYSSAFPLVDVTVIPDDEIAGHRSMAALTLLQKHIHQRDLAELVDRLAPILLAGYLSSSQVISLVHYIVQAGETSDAEAFVRELAQRVPQHGDALMTIAQQLEQKGIEKGIQLGEQRGIEKGRSEGEREATLKIARTMLQNCIDRNTVMKMTGLTEDDLAQIRH | not soluble
16 | MEITWEKPKSSSHHRNPSFSSTLLDQIYRSIDDSSPPPPLESIKKKKHHHQQRNASLHEDREISPIYHRRSIAADFERSRRKTDFLRHSNSSSSDSSGFSSSESDSFHGRSKSSASPPSSSRQQPKPIRTSSVDHSSAVQKPKELGGFLRTKSKALKIYSDLKKVKQPISPGGRLATFLNSLFTNAATNPKKHKKTTTVAVVEEPHSSSTCSSASSFSRSCLSKTPSSSGKSKRSVRFCPVNVILDEDSSFTMPYAYNNERLYDNNEAKRVEEHRRVIQAAKDLLRTYHNKNKVTTTNINNVEEDDEDDAASCASSDLFELENLSAIGIERYREELPVYETTRLDNMNRVIATGLIV | soluble
17 | MGSDKIHHHHHHMWSFKSMFNTPEDPEKDAYEFYGKVQPGITTPTQKTCNFVALDLKSKDRDAIKAMFKKWTVMADRMMDGDTVGKTSNNPLMPPVDTGESIGLGASKLTITFGISKSLMKKIGLSSKIPDAFKDLPHFPNDQLIDDYSDGDIMIQACSNDSQVSFHAVHNLVRPFRDIVKVRWAQSGFISAKGKETPRNLMAFKDGTINPRKSNQLKDYVFIDDGWAKHGTYCVVRRIQIHIETWDRTALEEQEATFGRKRHSGAPLTGGKEFDEIDLKAKDSHGEYIIDKDAHTRLAKEANTSILRRAFNYVDGTDDRTGNFETGLLFIAFQKATKQFIDIQNNLGSNDKLNEYITHRGSASFLVLPGVSKGGYLGETLFD | not soluble
18 | MGSDKIHHHHHHMLCENCHFNEAEVKLTVKGIDSTHEKWVCSVCAQGENPWLHSNDDNTYHTHQDDIEEAFVVKQILQHLAAKHGINFHEMAFKEEKKCPTCQMTLKDIAHVGKLGCADCYATFKEDIIDIVQRVQGGQFEHVGKTPQSSYKKLAIKKQIEEKSKYLNKLIDGQEFEEAAIVRDEIKALKSESEVSHDE | not soluble
